Experimental data reported in patent US5395750, “Methods for producing proteins which bind to predetermined antigens” (Hoffmann-La Roche Inc., dated 1995).

Molecular target: HIV-1 tat protein (HIV-1, UniProt P04608)
Test: phage binding to tat coated magnetic beads; TR5 also selected in 4 separate screening experiments

B1: phage TR5 (anti-tat Fv, synthetic single chain antibody displayed on FUSE5 phage) (scFv)
scFv: EVQLVESGRGLVQPGGSLRLSCAASGFTFSHFLVAWVRQAPGKGLEWVATYSMISRARVLDGSFNGRYTISRDDSKNTLYLQMNSLRAEDTAVYYCARIGSTHTIPRLSQYGGQGTLVTVSSGGGGSGGGGSGGGGSDIQMTQSPSSLSASVGDRVTITCKLRGPQPHAITWYQQKPGKAPKLLIYYDGQTLVGVPSRFSGSGSGTDFTPTISSLEPEDFATYYCTPTHKIDSPFGQGTKVEIKRT
- binding result: binds
